From patent US20250042994A1 (HAINAN SIMCERE ZAIMING PHARMACEUTICAL, published 2025)

Legend:
human CD19 on Raji cells = target: T1, human CD19 on Raji cells (human, UniProt P15391 20-556); assay: FACS on Raji cells
T1 construct: whole, on cells
T1 sequence (looked up): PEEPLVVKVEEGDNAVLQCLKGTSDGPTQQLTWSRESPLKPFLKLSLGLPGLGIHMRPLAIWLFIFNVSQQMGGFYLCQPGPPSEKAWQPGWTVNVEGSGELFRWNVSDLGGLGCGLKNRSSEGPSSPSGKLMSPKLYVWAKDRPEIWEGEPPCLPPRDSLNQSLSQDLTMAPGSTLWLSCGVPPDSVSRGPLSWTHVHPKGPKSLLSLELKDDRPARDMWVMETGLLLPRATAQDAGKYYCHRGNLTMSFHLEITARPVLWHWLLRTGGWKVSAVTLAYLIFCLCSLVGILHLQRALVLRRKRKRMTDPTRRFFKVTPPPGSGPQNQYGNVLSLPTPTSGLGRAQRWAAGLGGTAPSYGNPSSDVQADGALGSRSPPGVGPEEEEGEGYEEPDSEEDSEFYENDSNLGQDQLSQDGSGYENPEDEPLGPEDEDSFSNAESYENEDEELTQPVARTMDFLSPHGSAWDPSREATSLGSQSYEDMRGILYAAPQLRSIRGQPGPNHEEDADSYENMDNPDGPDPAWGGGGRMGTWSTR
From the text: (§1) The desired cells were scale-up cultured in a T-75 cell culture flask to the logarithmic growth phase. For the adherent cell CHO-K1, the medium was aspirated, the cells were washed 2 times with a PBS buffer, and then digested with trypsin. After the digestion was terminated, the cells were washed 2 times with a PBS buffer; and for suspension cell Raji, the supernatant of the medium was discarded by directly centrifugation, and the cell pellet was washed 2 times with PBS. After counting the cells in the previous step, the cell pellet was resuspended with [PBS+2% (w/w) BSA] blocking solution to 2×10⁶ cells/ml, and added to a 96-well FACS reaction plate at 50 μl/well, and then the sample to be tested was added at 50 μl/well, and incubated on ice for 2 h. The obtained mixture was centrifuged and washed 3 times with a PBS buffer. […] The obtained mixture was centrifuged and washed 5 times with a PBS buffer, and FACS (FACS Canto™, purchased from BD Company) was used for detection and result analysis. Data analysis was performed by software (FlowJo) to obtain the mean fluorescence intensity (MFI) of the cells. And then software (GraphPad Prism8) was used for analysis, data fitting, and EC50 value calculation. […] The same method was used to detect the binding of the chimeric antibodies to endogenous CD19-negative cells, MoLT4 cells (purchased from ATCC, CRL-1582), and CHO-K1 cells.

[1] = target: T2, human CD19 on CHO-K1-human CD19 cells (human, UniProt P15391 20-556); assay: FACS on CHO-K1-human CD19 cells
T2 construct: whole, on cells; also called CHO-K1-human CD19-2C8
T2 sequence (looked up): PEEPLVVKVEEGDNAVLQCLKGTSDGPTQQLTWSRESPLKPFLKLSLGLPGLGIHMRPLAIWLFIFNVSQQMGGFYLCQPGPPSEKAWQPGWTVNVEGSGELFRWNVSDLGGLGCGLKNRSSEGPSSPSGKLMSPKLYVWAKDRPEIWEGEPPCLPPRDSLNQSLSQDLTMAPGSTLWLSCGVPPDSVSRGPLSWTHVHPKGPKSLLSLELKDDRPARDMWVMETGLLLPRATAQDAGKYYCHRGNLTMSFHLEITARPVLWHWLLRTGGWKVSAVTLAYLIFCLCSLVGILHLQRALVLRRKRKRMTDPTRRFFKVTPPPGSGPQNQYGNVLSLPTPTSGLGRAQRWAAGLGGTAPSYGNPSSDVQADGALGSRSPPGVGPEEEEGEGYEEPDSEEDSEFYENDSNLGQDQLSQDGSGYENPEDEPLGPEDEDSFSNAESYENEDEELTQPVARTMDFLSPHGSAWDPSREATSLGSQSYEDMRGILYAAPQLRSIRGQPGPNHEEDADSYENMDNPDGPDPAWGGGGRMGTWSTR
From the text: as §1

[2] = target: T3, monkey CD19 on HEK293T-monkey CD19 cells (monkey); assay: FACS on HEK293T-monkey CD19 cells
T3 construct: whole, on cells
Experimental: as §1, with “After” for “The desired cells were scale-up cultured in a T-75 cell culture flask to the logarithmic growth phase. For the adherent cell CHO-K1, the medium was aspirated, the cells were washed 2 times with a PBS buffer, and then digested with trypsin. After”
HEK293T-monkey CD19 cells were subjected to FACS detection and data analysis according to the method in example 5.2. […] The same method was used to detect binding of the chimeric antibodies to HEK293T cells.

[3] = target: T4, cynomolgus monkey CD19 on peripheral blood B cells (cynomolgus monkey (Macaca fascicularis), UniProt A0A2K5W8L9 20-557); assay: FACS, cynomolgus PBMC, CD20+ B cells
T4 construct: whole, on cells; also called cynomolgus monkey B cells
T4 sequence: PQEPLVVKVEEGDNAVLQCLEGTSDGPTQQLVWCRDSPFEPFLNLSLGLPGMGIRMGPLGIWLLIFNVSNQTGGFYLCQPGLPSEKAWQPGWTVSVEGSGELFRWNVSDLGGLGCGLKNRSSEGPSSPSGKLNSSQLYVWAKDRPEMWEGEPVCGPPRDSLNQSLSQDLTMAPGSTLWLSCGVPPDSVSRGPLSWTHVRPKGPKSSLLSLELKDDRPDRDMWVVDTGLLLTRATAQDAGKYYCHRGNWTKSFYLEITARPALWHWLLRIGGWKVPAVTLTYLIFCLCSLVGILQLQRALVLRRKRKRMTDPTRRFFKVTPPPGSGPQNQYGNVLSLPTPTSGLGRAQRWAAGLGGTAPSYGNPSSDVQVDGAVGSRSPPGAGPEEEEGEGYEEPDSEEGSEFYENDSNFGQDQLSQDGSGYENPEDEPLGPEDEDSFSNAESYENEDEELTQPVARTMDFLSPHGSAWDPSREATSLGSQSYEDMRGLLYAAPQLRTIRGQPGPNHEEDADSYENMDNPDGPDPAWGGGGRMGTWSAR
Experimental: The monkey peripheral blood mononuclear cells were extracted from fresh cynomolgus monkey peripheral blood (purchased from Shanghai Medicilon Inc.) according to the instructions of Ficoll-Paque Plus (purchased from GE Healthcae, catalog number: 171440-02). After the cell suspension was centrifuged, the cells were resuspended in PBS containing 1% BSA, and then the cells were counted. […] The mixture was incubated for 1 h at room temperature. After washing the cells three times, APC-labeled secondary antibody anti-human IgG Fc (catalog number: 409306, purchased from Biolegend) was added. After incubation at room temperature in the dark for 30 minutes, the cells were washed 5 times, gently resuspended with PBS containing 1% BSA, and detected and analyzed by FACS (FACS Canto™, purchased from BD Company), in which CD20 was used as a marker of B cells to gate the CD20-positive B cell population, the proportion of the chimeric antibody-labeled positive cells was analyzed, and the proportion of the chimeric antibody positive cell population to B cell population was calculated after treatments with the chimeric antibodies at the concentrations of 100 nM, 10 nM and 1 nM, respectively.

| Binder | EC50 (human CD19 on Raji cells) | Maximum mean fluorescence intensity (human CD19 on Raji cells) | EC50 [1] | Maximum mean fluorescence intensity [1] | Maximum mean fluorescence intensity [2] | Proportion of chimeric antibody positive cells to B cells (%) at 1 nM [3] | Proportion of chimeric antibody positive cells to B cells (%) at 10 nM [3] | Proportion of chimeric antibody positive cells to B cells (%) at 100 nM [3] | EC50 [2] |
| --- | --- | --- | --- | --- | --- | --- | --- | --- | --- |
| F4.276.12 (antibody, human IgG1, V domains shown, human-murine chimeric antibody, human IgG1) VH: EIQLQQSGPELVKPGASVKVSCKASGYAFSAYNMYWVKQSHGKSLEWIGYIDPYNGGTNYNQKFKGKATLTVDKSSSTAYMHLNSLTSEDSAVYYCARDGYEVTYWGQGTLVTVSA VL: QIVLTQSPALMSASLGEEITLTCSASSSVTYMHWSQQKSGTSPRLLIYSTSNLASGVPSRFSGSGSGTFYSLTISSVEAEDAADYYCHQWSSYPWTFGGGTKLEIK | 0.78 nM | 23500 | 1.05 nM | 50200 | 597 | 2% | 1% | 2% | – |
| F2.15.26 (antibody, human IgG1, V domains shown, human-murine chimeric antibody, human IgG1) VH: QVQLKESGPGLVAPSQSLSITCTVSGFSLTDYGVSWIRQSPGKGLEWLGVIWGSGDTYYNSVLESRLSINKDNSKNQVFLKMNSLQTDDAAMYFCAKHSYYGGSFAMDYWGQGTSVTVSS VL: DIQMTQTTSSLSASLGDRVTISCRASQDISNYLNWYQQKPDGTVKLLIYYTSRLHSGVPSRFSGSGSGTDYSLTISNLEQEDIATYFCQQGKTLPWTFGGGTKLEIK | 0.53 nM | 29200 | 0.71 nM | 60400 | 28700 | 2% | 6% | 22% | 16.7 nM |
| F3.5.1 (antibody, human IgG1, V domains shown, human-murine chimeric antibody, human IgG1) VH: QAQLQQSGPELVKPGASVKISCKASGYAFSGSWMNWVQQRPGKGLEWIGRIYPGDGDTYYNGKFKDKAILTADKSSSTAYMQLSSLTSEDSAVYFCAQLRYRYVMDYWGQGTSVTVSS VL: DIVLTQSPASLAVSLGQRATISCRASESVSIHGSHLMHWYQQKPGQPPRLLIYAASNLESGVPARFSGSGSETDFTLNIHPVEEEDAATYFCQQGIKDPYTFGGGTKLEIK | 1.47 nM | 24800 | 2.49 nM | 49900 | 80000 | 6% | 15% | 23% | 6.11 nM |

Second part, the binder after the results:

| EC50 (human CD19 on Raji cells) | Maximum mean fluorescence intensity (human CD19 on Raji cells) | EC50 [1] | Maximum mean fluorescence intensity [1] | Maximum mean fluorescence intensity [2] | Proportion of chimeric antibody positive cells to B cells (%) at 1 nM [3] | Proportion of chimeric antibody positive cells to B cells (%) at 10 nM [3] | Proportion of chimeric antibody positive cells to B cells (%) at 100 nM [3] | EC50 [2] | Binder |
| --- | --- | --- | --- | --- | --- | --- | --- | --- | --- |
| 5.25 nM | 43300 | 0.84 nM | 63300 | 99100 | 91% | 97% | 97% | 0.94 nM | F6.12.12 (antibody, human IgG1, V domains shown, human-murine chimeric antibody, human IgG1) VH: DVQLQESGPGLVKPSQSLSLTCSVTGYSITSGYYWIWIRQFPGNKLEWMGYISYDASNKYKPSLKNRISITRDTSKNQFFLKLNSVTAEDTATYFCAREDLRGYFDVWGTGTSVTVSS VL: DIVLTQSPASLAVSLGRRATISCRASQSVSTSGFSYMHWYQQKPGQPPNLLIKYASILQSGVPARFSGSGSGTDFILNIHPVEDVDTATYYCQHSWGIPFTFGSGTKLEIK |
| 2.59 nM | 27000 | 6 nM | 49100 | 281 | 1% | 1% | 5% | – | F3.40.14 (antibody, human IgG1, V domains shown, human-murine chimeric antibody, human IgG1) VH: QAQLQQSGPELVKPGASVKISCKASGYAFSGSWMNWVQQRPGKGLEWIGRIYPGDGDTYYSGKFKDKAILTADTSSSTAYMQLSSLTSEDSAVYFCAQLRSRYVMDYWGQGASVTVSS VL: DIVLTQSPASLAVSLGQRATISCRASESVSIHGTHLMHWYQQKPGQPPRLLIYAASNLESGVPARFSGSGSETDFTLNIHPVEEEDAATYFCQQGIDDPYTFGGGTKLEIK |
| 2.9 nM | 29700 | 1.9 nM | 48300 | 173000 | 38% | 91% | 99% | 2.08 nM | F3.3.10 (antibody, human IgG1, V domains shown, human-murine chimeric antibody, human IgG1) VH: DVQLQESGPGLAKLSQSLSLTCSVTGYSITSGYYWNWIRQFPGNKLEWMGHISYDGNNNYNPSLKNRISITRDTSKNQFFLKLNSVTTEDTATYYCARENYSNYYFDYWGQGTTLTVSS VL: DIVLTQSPASLAVSLGQRATISCRASQSVSKSSYTYIHWYQQKPGQPPKLLIKYASILQSGVPARFSGSGSGTDFTLNFHPVEEEDTATYYCQHSWEIPYTFGGGTKLEIK |
| 0.57 nM | 33100 | 0.69 nM | 66900 | 75000 | 15% | 32% | 59% | 1.76 nM | F1-mab003 (antibody, human IgG1, V domains shown, human-murine chimeric antibody, human IgG1) VH: EVQLQQSGPELVKPGASVKMSCKASGYTFTDYVMHWVRQTPGQGLEWIGYFNPYNDGTNYNEKFKVKATLTSDKSSTTAYMELSSLTSEDSAVYYCARGVYYYGRDFDYWGQGTTLTVSS VL: DVVLTQTPLSLPVSLGDQASISCRSSQSLENSNGNSYLNWYLQKPGQSPQLLIYRVSNRFSGVLDRFSGSGSGTDFTLKISRVEAEDLGVYFCLQITHVPWTFGGGTKLEIK |
